Results reported in PMC3755756 (Developmental cell, 2013).

Target: ubiquitin (15N-Ub) (UniProt P0CG48 1-76)
Test: NMR titration

| Binder | Kd |
| --- | --- |
| V domain of human Alix (domain or fragment) FEKMVPVSVQQSLAAYNQRKADLVNRSIAQMREATTLANGVLASLNLPAAIEDVSGDTVPQSILTKSRSVIEQGGIQTVDQLIKELPELLQRNREILDESLRLLDEEEATDNDLRAKFKERWQRTPSNELYKPLRAEGTNFRTVLDKAVQADGQVKECYQSHRDTIVLLCKPEPELNAAIPSANPAKTMQGSEVVNVLKSLLSNLDEVKKEREGLENDLKSVNFDMTSKFLTALAQDGVINEEALSVTELDRVYGGLTTKVQESLKKQEGLLKNIQVSHQEFSKMKQSNNEANLREEVLKNLATAYDNFVELVANLKEGTKFYNELTEILVRFQNKCSDIVFARKTER | ~50 µM |
| V domain of HD-PTP (domain or fragment, human, UniProt Q9H3S7 401-714, looked up) MQLDPETVDNLDAYSHIPPQLMEKCAALSVRPDTVRNLVQSMQVLSGVFTDVEASLKDIRDLLEEDELLEQKFQEAVGQAGAISITSKAELAEVRREWAKYMEVHEKASFTNSELHRAMNLHVGNLRLLSGPLDQVRAALPTPALSPEDKAVLQNLKRILAKVQEMRDQRVSLEQQLRELIQKDDITASLVTTDHSEMKKLFEEQLKKYDQLKVYLEQNLAAQDRVLCALTEANVQYAAVRRVLSDLDQKWNSTLQTLVASYEAYEDLMKKSQEGRDFYADLESKVAALLERTQSTCQAREAARQQLLDRELKK | ~50 µM |
